Blank lines part the entries; values can stand above or below the binder they belong to. Square brackets hold non-standard residues; d marks the D form. Ends that are not written are not given here. * marks the point of attachment. 1Nal = N[C@@H](Cc1cccc2ccccc12)C(=O)O; Stearoyl = CCCCCCCCCCCCCCCCCC(=O)*; Palmitoyl = CCCCCCCCCCCCCCCC(=O)*; Myristoyl = CCCCCCCCCCCCCC(=O)*; PheCl2 = dichlorophenylalanine; Lauroyl = CCCCCCCCCCCC(=O)*; PheNO2 = nitrophenylalanine; Decanoyl = CCCCCCCCCC(=O)*; Nle = CCCC[C@H](N)C(=O)O; Octanoyl = CCCCCCCC(=O)*
Columns and labels:
[1] = target: T1, rat PrRP receptor in RC-4B/C cells (rat, UniProt Q64121 1-370); assay: competition with 125I-rat PrRP31, RC-4B/C cells
T1 construct: whole, on cells; endogenous receptor of RC-4B/C cells (ATCC); also called rat receptor; GPR10 receptor expressed in rat hypophyseal cells
T1 sequence (looked up): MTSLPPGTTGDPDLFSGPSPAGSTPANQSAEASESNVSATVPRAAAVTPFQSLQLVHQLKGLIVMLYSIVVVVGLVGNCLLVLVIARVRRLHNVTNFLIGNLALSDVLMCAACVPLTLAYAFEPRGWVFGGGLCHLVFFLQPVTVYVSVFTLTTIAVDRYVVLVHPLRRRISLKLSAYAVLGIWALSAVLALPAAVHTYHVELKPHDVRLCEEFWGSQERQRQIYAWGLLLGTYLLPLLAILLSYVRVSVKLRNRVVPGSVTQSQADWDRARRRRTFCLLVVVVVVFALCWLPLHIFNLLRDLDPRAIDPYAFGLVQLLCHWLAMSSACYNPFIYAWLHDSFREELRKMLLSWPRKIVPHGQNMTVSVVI
Procedure, shortened: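 Incubation 60 min at room temperature; cells solubilized in 0.1 mol/l NaOH and bound radioactivity γ-counted. Run in duplicate, repeated at least three times.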

[2] = target: T2, human PrRP receptor GPR10 (human, UniProt P49683 1-370); assay: competition with 125I-human PrRP31, CHO cells with human GPR10
T2 construct: whole, on cells; also called GPR10 human receptor transfected in CHO cells; human GPR10 receptor
T2 sequence (looked up): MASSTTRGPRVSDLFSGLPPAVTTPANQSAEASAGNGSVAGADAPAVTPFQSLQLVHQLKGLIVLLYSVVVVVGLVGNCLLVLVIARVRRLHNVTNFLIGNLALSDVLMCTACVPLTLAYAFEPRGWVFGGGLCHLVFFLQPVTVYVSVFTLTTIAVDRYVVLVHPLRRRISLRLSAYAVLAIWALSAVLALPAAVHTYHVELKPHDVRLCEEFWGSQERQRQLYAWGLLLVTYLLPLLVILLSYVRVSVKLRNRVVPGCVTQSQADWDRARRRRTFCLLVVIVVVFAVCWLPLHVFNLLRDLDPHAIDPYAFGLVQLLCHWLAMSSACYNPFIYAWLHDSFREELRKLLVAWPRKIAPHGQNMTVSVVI

B2: analog no. 9 (peptide)
peptide: Stearoyl-SRAHQHS[Nle]ETRTPDINPAWYTGRGIRPVGRF-NH2
% of PrRP31 [1]: 514%
Ki [1]: 0.96 nM
% of PrRP31 [2]: 72%
Ki [2]: 5.39 nM

B4: analog no. 6 (peptide)
peptide: Lauroyl-SRAHQHS[Nle]ETRTPDINPAWYTGRGIRPVGRF-NH2
% of PrRP31 [1]: 1260%
Ki [1]: 0.39 nM
% of PrRP31 [2]: 327%
Ki [2]: 1.19 nM

B8: analog no. 5 (peptide)
peptide: Decanoyl-SRAHQHS[Nle]ETRTPDINPAWYTGRGIRPVGRF-NH2
% of PrRP31 [1]: 758%
Ki [1]: 0.65 nM
% of PrRP31 [2]: 266%
Ki [2]: 1.46 nM

B11: analog no. 2 (peptide)
peptide: Myristoyl-TPDINPAWYASRGIRPVGRF-NH2
SMILES: CCCCCCCCCCCCCC(=O)N[C@H](C(=O)N1CCC[C@H]1C(=O)N[C@@H](CC(=O)O)C(=O)N[C@H](C(=O)N[C@@H](CC(N)=O)C(=O)N1CCC[C@H]1C(=O)N[C@@H](C)C(=O)N[C@@H](Cc1c[nH]c2ccccc12)C(=O)N[C@@H](Cc1ccc(O)cc1)C(=O)N[C@@H](C)C(=O)N[C@@H](CO)C(=O)N[C@@H](CCCNC(=N)N)C(=O)NCC(=O)N[C@H](C(=O)N[C@@H](CCCNC(=N)N)C(=O)N1CCC[C@H]1C(=O)N[C@H](C(=O)NCC(=O)N[C@@H](CCCNC(=N)N)C(=O)N[C@@H](Cc1ccccc1)C(N)=O)C(C)C)[C@@H](C)CC)[C@@H](C)CC)[C@@H](C)O
% of PrRP31 [1]: 1030%
Ki [1]: 0.48 nM
% of PrRP31 [2]: 90%
Ki [2]: 4.33 nM

B12: analog no. 10 (peptide)
peptide: SRAHQHS[Nle]ETRTPDINPAWYTGRGIRPVGR[1Nal]-NH2
% of PrRP31 [1]: 4.8%
Ki [1]: 102 nM
% of PrRP31 [2]: 11%
Ki [2]: 34.5 nM

B14: analog no. 8 (peptide)
peptide: Palmitoyl-SRAHQHS[Nle]ETRTPDINPAWYTGRGIRPVGRF-NH2
% of PrRP31 [1]: 967%
Ki [1]: 0.51 nM
% of PrRP31 [2]: 128%
Ki [2]: 3.03 nM

B16: analog no. 4 (peptide)
peptide: Octanoyl-SRAHQHS[Nle]ETRTPDINPAWYTGRGIRPVGRF-NH2
% of PrRP31 [1]: 503%
Ki [1]: 0.98 nM
% of PrRP31 [2]: 254%
Ki [2]: 1.53 nM

B17: analog no. 7 (peptide)
peptide: Myristoyl-SRAHQHS[Nle]ETRTPDINPAWYTGRGIRPVGRF-NH2
% of PrRP31 [1]: 714%
Ki [1]: 0.69 nM
% of PrRP31 [2]: 548%
Ki [2]: 0.71 nM

Further lines, results first:

% of PrRP31 [1]: 850%
Ki [1]: 0.58 nM
% of PrRP31 [2]: 505%
Ki [2]: 0.77 nM
B1: analog no. 18 (peptide)
peptide: Palmitoyl-SRAHQHS[Nle]ETRTPDINPAWYTGRGIRPVGR[PheNO2]-NH2

% of PrRP31 [1]: 4.6%
Ki [1]: 123 nM
% of PrRP31 [2]: 1.5%
Ki [2]: 262 nM
B3: analog no. 20 (peptide)
peptide: Myristoyl-SHQRPADTHWYPRG[Nle]FPTIGRITARNGEVSR
notes: scrambled peptide; also called 20 scram

% of PrRP31 [1]: 2.5%
Ki [1]: 19.9 nM
% of PrRP31 [2]: 81%
Ki [2]: 4.8 nM
B5: analog no. 16 (peptide)
peptide: SRAHQHS[Nle]ETRTPDINPAWYTGRGIRPVGR[PheNO2]-NH2

% of PrRP31 [1]: 250%
Ki [1]: 1.97 nM
% of PrRP31 [2]: 245%
Ki [2]: 1.59 nM
B6: analog no. 17 (peptide)
peptide: Myristoyl-SRAHQHS[Nle]ETRTPDINPAWYTGRGIRPVGR[PheNO2]-NH2

% of PrRP31 [1]: 379%
Ki [1]: 1.3 nM
% of PrRP31 [2]: 370%
Ki [2]: 1.05 nM
B7: analog no. 15 (peptide)
peptide: Palmitoyl-SRAHQHS[Nle]ETRTPDINPAWYTGRGIRPVGR[PheCl2]-NH2

% of PrRP31 [1]: 124%
Ki [1]: 3.96 nM
% of PrRP31 [2]: 292%
Ki [2]: 1.33 nM
B9: analog no. 11 (peptide)
peptide: Myristoyl-SRAHQHS[Nle]ETRTPDINPAWYTGRGIRPVGR[1Nal]-NH2

% of PrRP31 [1]: 275%
Ki [1]: 1.79 nM
% of PrRP31 [2]: 409%
Ki [2]: 0.95 nM
B10: analog no. 14 (peptide)
peptide: Myristoyl-SRAHQHS[Nle]ETRTPDINPAWYTGRGIRPVGR[PheCl2]-NH2

% of PrRP31 [1]: 227%
Ki [1]: 2.17 nM
% of PrRP31 [2]: 91%
Ki [2]: 4.27 nM
B13: analog no. 12 (peptide)
peptide: Palmitoyl-SRAHQHS[Nle]ETRTPDINPAWYTGRGIRPVGR[1Nal]-NH2

% of PrRP31 [1]: 128%
Ki [1]: 3.84 nM
% of PrRP31 [2]: 171%
Ki [2]: 2.27 nM
B15: analog no. 13 (peptide)
peptide: SRAHQHS[Nle]ETRTPDINPAWYTGRGIRPVGR[PheCl2]-NH2

From patent publication US20150196651A1 (published 2015)
